# Patent US20150011431A1 (Scripps Research, published 2015)
# Residue numbers refer to the chain shown, from its start. Numbers in names are those of the source.
# B1: IgG with VH4-4+CDR3-IL8 (antibody)
# VH: QVQLQESGPGLVKPSETLSLTCTVSGGSISSYYWSWIRQPAGKGLEWIGRIYTSGSTNYNPSLKSRVTMSVDTSKNQFSLKLSSVTAADTAVYYCTSVHQETKKYQSPRSAKELRCQCIKTYSKPFHPKFIKELRVIESGPHCANTEIIVKLSDGRELCLDPKENWVQRVVEKFLKRAENSGSGSYTYNYEWHVDVWGQGLLVTVSSAS
# light: not shown
# notes: IgG; VH cloned before human IgG1 CH1-CH2-CH3 in HC pFuse; also called VH4-4 BLVCDR3IL8
# B2: BLV1H12 IgG (antibody)
# VH: QVQLRESGPSLVKPSQTLSLTCTASGFSLSDKAVGWVRQAPGKALEWLGSIDTGGNTGYNPGLKSRLSITKDNSKSQVSLSVSSVTTEDSATYYCTSVHQETKKYQSCPDGYRERSDCSNRPACGTSDCCRVSVFGNCLTTLPVSYSYTYNYEWHVDVWGQGLLVTVSS
# light: not shown
# notes: also called ULcowV
# B3: IgG with VH1-69+CDR3-IL8 (antibody)
# VH: QVQLVQSGAEVKKPGSSVKVSCKASGGTFSSYAISWVRQAPGQGLEWMGGIIPIFGTANYAQKFQGRVTITADKSTSTAYMELSSLRSEDTAVYYCTSVHQETKKYQSPRSAKELRCQCIKTYSKPFHPKFIKELRVIESGPHCANTEIIVKLSDGRELCLDPKENWVQRVVEKFLKRAENSGSGSYTYNYEWHVDVWGQGLLVTVSSAS
# light: not shown
# notes: IgG; VH cloned before human IgG1 CH1-CH2-CH3 in HC pFuse; cell culture supernatant; also called VH1-69 BLVCDR3IL8
# B4: IgG with VH4-34+CDR3-IL8 (antibody)
# VH: QVQLQQWGAGLLKPSETLSLTCAVYGGSFSGYYWSWIRQPPGKGLEWIGEINHSGSTNYNPSLKSRVTISVDTSKNQFSLKLSSVTAADTAVYYCTSVHQETKKYQSPRSAKELRCQCIKTYSKPFHPKFIKELRVIESGPHCANTEIIVKLSDGRELCLDPKENWVQRVVEKFLKRAENSGSGSYTYNYEWHVDVWGQGLLVTVSSAS
# light: not shown
# notes: IgG; VH cloned before human IgG1 CH1-CH2-CH3 in HC pFuse; cell culture supernatant; also called VH4-34 BLVCDR3IL8
# B5: IgG with VH1-24+CDR3-IL8 (antibody)
# VH: QVQLVQSGAEVKKPGASVKVSCKVSGYTLTELSMHWVRQAPGKGLEWMGGFDPEDGETIYAQKFQGRVTMTEDTSTDTAYMELSSLRSEDTAVYYCTSVHQETKKYQSPRSAKELRCQCIKTYSKPFHPKFIKELRVIESGPHCANTEIIVKLSDGRELCLDPKENWVQRVVEKFLKRAENSGSGSYTYNYEWHVDVWGQGLLVTVSSAS
# light: not shown
# notes: IgG; VH cloned before human IgG1 CH1-CH2-CH3 in HC pFuse; cell culture supernatant; also called VH1-24 BLVCDR3IL8
# B6: IgG with VH1-46+CDR3-IL8 (antibody)
# VH: QVQLVQSGAEVKKPGASVKVSCKASGYTFTSYYMHWVRQAPGQGLEWMGIINPSGGSTSYAQKFQGRVTMTRDTSTSTVYMELSSLRSEDTAVYYCTSVHQETKKYQSPRSAKELRCQCIKTYSKPFHPKFIKELRVIESGPHCANTEIIVKLSDGRELCLDPKENWVQRVVEKFLKRAENSGSGSYTYNYEWHVDVWGQGLLVTVSSAS
# light: not shown
# notes: IgG; VH cloned before human IgG1 CH1-CH2-CH3 in HC pFuse; cell culture supernatant; also called VH1-46 BLVCDR3IL8
# B7: IgG with VH4-34+CDR3-IL8_CDR1 G31D, Y32K and BLV1H12 light chain (antibody)
# VH: B4 VH with G31D, Y32K
# VL: QAVLNQPSSVSGSLGQRVSITCSGSSSNVGNGYVSWYQLIPGSAPRTLIYGDTSRASGVPDRFSGSRSGNTATLTISSLQAEDEADYFCASAEDSSSNAVFGSGTTLTVLGQPKSPPSVTLFPPSTEELNGNKATLVCLISDFYPGSVTVVWKADGSTITRNVETTRASKQSNSKYAASSYLSLTSSDWKSKGSYSCEVTHEGSTVTKTVKPSECS
# notes: IgG, human IgG1 CH1-CH2-CH3; also called VH4-34 + CDR3-IL8 + E31D, Y32K
# B8: IgG with VH4-34+CDR3-IL8_CDR2 Cow and BLV1H12 light chain (antibody)
# VH: B4 VH with I48L, E50S, N52D, H53T, S54G, S56N, N58G
# VL: B7 VL
# notes: IgG, human IgG1 CH1-CH2-CH3; also called VH4-34 + CDR3-IL8 + Cow CDR2
# B9: IgG with VH4-34+CDR3-IL8_CDR2 E50S and BLV1H12 light chain (antibody)
# VH: B4 VH with E50S
# VL: B7 VL
# notes: IgG, human IgG1 CH1-CH2-CH3; also called VH4-34 + CDR3-IL8 + E50S
# B10: IgG with VH4-34+CDR3-IL8_CDR1 Cow and BLV1H12 light chain (antibody)
# VH: B4 VH with A23T, V24A, Y25S, G27F, F29L, G31D, Y32K, Y33A, W34V, S35G
# VL: B7 VL
# notes: IgG, human IgG1 CH1-CH2-CH3; also called VH4-34 + CDR3-IL8 + Cow CDR1
# B11: IgG with VH4-34+CDR3-IL8_CDR1 Cow CDR2 Cow and light chain V1-51 CDR1 I29V, N32G (antibody)
# heavy: not shown
# light: QSVLTQPPSVSAAPGQKVTISCSGSSSNVGNGYVSWYQQLPGTAPKLLIYDNNKRPSGIPDRFSGSKSGTSATLGITGLQTGDEADYYCASAEDSSSNAVFGSGTTLTVLGQPKAAPSVTLFPPSSEELQANKATLVCLISDFYPGAVTVAWKADSSPVKAGVETTTPSKQSNNKYAASSYLSLTPEQWKSHRSYSCQVTHEGSTVEKTVAPTECS
# notes: IgG, human IgG1 CH1-CH2-CH3; normalized to 10 nM; also called VH4-34 CDR3-IL8 CDR1-Cow & CDR2-Cow / V1-51 CDR1 I29V, N32G
# B12: IgG with VH4-34+CDR3-IL8_CDR1 Cow CDR2 Cow and light chain V1-51 S2A, T5N, P8S, A12G, A13S, P14L (antibody)
# heavy: not shown
# light: B11 light with S2A, T5N, P8S, A12G, A13S, P14L, V29I, G32N
# notes: IgG, human IgG1 CH1-CH2-CH3; normalized to 10 nM; also called VH4-34 CDR3-IL8 CDR1-Cow & CDR2-Cow / V1-51 S2A, T5N, P8S, A12G, A13S, P14L
# B13: IgG with VH4-34+CDR3-IL8_CDR1 Cow and light chain V1-51 CDR1 I29V, N32G (antibody)
# heavy: not shown
# light: B11 light
# notes: IgG, human IgG1 CH1-CH2-CH3; normalized to 10 nM; also called VH4-34 CDR3-IL8 CDR1-Cow / V1-51 CDR1 I29V, N32G
# B14: IgG with VH4-34+CDR3-IL8_CDR1 Cow and light chain V1-51 CDR2 DNNKRP to GDTSRA (antibody)
# heavy: not shown
# light: B11 light with V29I, G32N, D51G, N52D, N53T, K54S, P56A
# notes: IgG, human IgG1 CH1-CH2-CH3; normalized to 10 nM; Only 'DNN (amino acids 51-53)' is printed; positions 54 and 56 are counted on from it
# B15: IgG with VH4-34+CDR3-IL8_CDR1 Cow CDR2 Cow and light chain V1-51 CDR2 DNN to GDT (antibody)
# heavy: not shown
# light: B11 light with V29I, G32N, D51G, N52D, N53T
# notes: IgG, human IgG1 CH1-CH2-CH3; normalized to 10 nM; also called VH4-34 CDR3-IL8 CDR1-Cow & CDR2-Cow / V1-51 CDR2 DNN to GDT
# B16: IgG with VH4-34+CDR3-IL8_CDR1 Cow CDR2 Cow and light chain V1-51 CDR2 DNNKRP to GDTSRA (antibody)
# heavy: not shown
# light: B11 light with V29I, G32N, D51G, N52D, N53T, K54S, P56A
# notes: IgG, human IgG1 CH1-CH2-CH3; normalized to 10 nM
# B17: IgG with VH4-34+CDR3-IL8_CDR1 Cow and light chain V1-51 S2A, T5N, P8S, A12G, A13S, P14L & DNN to GDT (antibody)
# heavy: not shown
# light: QAVLNQPSSVSGSLGQKVTISCSGSSSNIGNNYVSWYQQLPGTAPKLLIYGDTKRPSGIPDRFSGSKSGTSATLGITGLQTGDEADYYCASAEDSSSNAVFGSGTTLTVLGQPKAAPSVTLFPPSSEELQANKATLVCLISDFYPGAVTVAWKADSSPVKAGVETTTPSKQSNNKYAASSYLSLTPEQWKSHRSYSCQVTHEGSTVEKTVAPTECS
# notes: IgG, human IgG1 CH1-CH2-CH3; normalized to 10 nM; also called VH4-34 CDR3-IL8 CDR1-Cow / V1-51 S2A, T5N, P8S, A12G, A13S, P14L & DNN to GDT
# Biological target: T1, CXCR1 (UniProt P25024 1-350, limits assumed)
# T1 construct: whole, on cells; DiscoveRx cells engineered with a luminescent reporter enzyme for beta-arrestin recruitment; also called CXCR1-U2OS; U2OS-CXCR1
# T1 sequence (looked up): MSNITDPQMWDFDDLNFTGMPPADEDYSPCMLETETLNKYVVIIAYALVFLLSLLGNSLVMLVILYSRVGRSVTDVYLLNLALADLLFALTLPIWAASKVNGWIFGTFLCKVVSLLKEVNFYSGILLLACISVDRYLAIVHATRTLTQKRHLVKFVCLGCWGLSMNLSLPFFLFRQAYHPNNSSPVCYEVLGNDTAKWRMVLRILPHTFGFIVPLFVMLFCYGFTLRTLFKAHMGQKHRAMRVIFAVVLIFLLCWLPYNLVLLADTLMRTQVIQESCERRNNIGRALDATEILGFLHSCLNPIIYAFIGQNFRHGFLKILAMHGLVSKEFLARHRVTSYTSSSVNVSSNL
# Assay: flow cytometry, IgG-containing supernatant on CXCR1-U2OS cells, fluorescent anti-human Fc
# Procedure: (§1) In an exemplary method, BLV1H12 IgG comprising a CDR3 with an IL-8 insert (e.g., the IL-8 sequence replaced a portion of the CDR3) was evaluated for binding to CXCR1 expressing cells by flow cytometry. Briefly, a cell line expressing functionally validated CXCR1 derived from U2OS cells was obtained from DiscoveRx and cultured per manufacturer's instructions (Cat#93-0226C3, DiscoveRx Corporation, Freemont, Calif.). The parental cell line U2OS was obtained from ATCC and cultured under the same conditions as the CXCR1 cells. Cell culture supernatants were then tested for binding to cells by flow cytometry. The adherent U2OS or CXCR1-U2OS cells were dissociated with Accutase (Innovative Cell Technologies, Inc., San Diego, Calif.), neutralized with an equal volume of media containing 10% serum, centrifuged at 1000 g, and resuspended in PBS with 2% BSA. Next, cells were dispensed into microtiter plates to achieve between 30,000 to 300,000 cells per well, centrifuged again, and resuspended in cell culture supernatant containing expressed IgG, or a dilution of IgG-containing cell culture supernatant. A fluorescent-conjugated anti-Human Fc antibody was used to detect binding of the expressed antibody to cells.
# (§2) Additionally, the human germline CDR3-IL8 IgGs described in Example 5 were evaluated for binding to CXCR1 expressing cells by flow cytometry as described above. IgG binding to CXCR1-U2OS cells is indicated by higher fluorescence values, but non-specific binding to U2OS parental cells is also detectable.
row,Binder,median fluorescence on CXCR1-U2OS [AFU]
1,B1,3080
2,B2,9
3,B3,78
4,B4,648
5,B5,23
6,B6,6

# Biological target: T1, CXCR1
# Assay: flow cytometry; fluorescence on CXCR1-U2OS cells over fluorescence on parental U2OS cells
# Procedure: as §1
# In an exemplary method, certain residues in VH4-34 CDR1 and/or CDR2 were substituted with corresponding CDR1 and/or CDR2 residues from BLV1H12. Briefly, the pFuse vector encoding heavy chain VH4-34 CDR3-IL8 was modified by overlap PCR to replace all of CDR1 with sequence from BLV1H12 (VH4-34+CDR3-IL8_CDR1 Cow, SEQ ID NO: 432) or all of CDR2 with sequence from BLV1 H12 (VH4-34+CDR3-IL8_CDR2 Cow, SEQ ID NO: 433).
row,Binder,FACS CXCR1/Parental Ratio
1,B2,1.9
2,B4,9.3
3,B7,8.1
4,B8,8
5,B9,4
6,B10,2.1

# Biological target: T1, CXCR1
# Assay: as above
# Remark: another data set of the same source
# Procedure: as §1, §2
row,Binder,Ratio of CXCR1/Parental
1,B1,3.1
2,B2,1.9
3,B3,4
4,B4,9.3
5,B5,4.3
6,B6,1.1

# Biological target: T1, CXCR1
# Assay: flow cytometry with 2 ug/ml heparin sulfate, IgG normalized to 10 nM; CXCR1-U2OS against parental U2OS cells
# Procedure: Cell culture supernatants were then tested for binding to cells by flow cytometry. The adherent U2OS or CXCR1-U2OS cells were dissociated with Accutase (Innovative Cell Technologies, Inc., San Diego, Calif.), neutralized with an equal volume of media containing 10% serum, centrifuged at 1000 g, and resuspended in PBS with 2% BSA. Next, cells were dispensed into microtiter plates to achieve between 30,000 to 300,000 cells per well, centrifuged again, and resuspended in cell culture supernatant containing expressed IgG, or a dilution of IgG-containing cell culture supernatant. A fluorescent-conjugated anti-Human Fc antibody was used to detect binding of the expressed antibody to cells.
# In an exemplary method, variants of V1-51 were made by overlap PCR and subcloned into pFuse vector for expression as described in Example 4. […] These V1-51 variants were paired with heavy chains encoding VH4-34+CDR3-IL8 (SEQ ID NO: 430), VH4-34+CDR3-IL8_CDR1 Cow (SEQ ID NO: 432), VH4-34+CDR3-IL8_CDR2 Cow (SEQ ID NO: 433), or VH4-34+CDR3-IL8_CDR1 Cow CDR2 Cow, (SEQ ID NO: 436). Transfections and ELISA were carried out as described above, and flow cytometry was used to evaluate CXCR1 binding specificity as previously described, with the modification that cells were resuspended in 2% BSA in PBS plus 2 ug/ml Heparin sulfate, and IgGs were normalized to 10 nM during incubation on cells.
row,Binder,CXCR1 specificity
1,B11,11.8
2,B12,12.2
3,B13,8.9
4,B14,8
5,B15,16.7
6,B16,6.9
7,B17,6.8
